Usually Kd stands for the concentration at which binding is half-saturated. Usually koff stands for the rate constant with which the complex falls apart. A low value points to slow dissociation. Usually kon stands for a measure of how fast the partners come together. Higher therefore signals faster complex formation. A word on the IC50: it is the midpoint of a concentration-inhibition curve.

The values that follow come from patent US20200377563A1 (Pieris, published 2020).

First the molecules themselves.
B1: lipocalin mutein SEQ ID NO: 46 (designed binder)
chain: QDSTSDLIPAPPLSKVPLQQNFQDNQFHGKWYVVGEAGNLLLREDKDPRKMTATIYELREDKSYDVTRVEFGVKTYKYQIGTFVPGSQPGEFTLGGIKSMPGMTSFLVRVVSTDYNQHAMVFFKYVYQNREYFEITLYGRTKELTSELKENFIRFSKSLGLPENHIVFPVPIDQAIDG
B2: lipocalin mutein SEQ ID NO: 45 (designed binder)
chain: B1 chain with L41I, R59K, Y76R, Q79R, D114N
B3: marmoset IL-17A (ligand)
chain: GIASPQNPGCPNAEDKNFPRTVMVNLNIRNRNTNSKRASDYYNRSSSPWNLHRNEDPERYPSVIWEAKCRHLGCVDADGNVDYHMNSVPIQQEILVLRREPRHCTNSFRLEKMLVSVGCTCVTPIVRHVA
notes: also called marmoset monkey IL-17A
B4: fusion protein of SEQ ID NO: 7 (designed binder)
chain: QDSTSDLIPAPPLSKVPLQQNFQDNQFHGKWYVVGEAGNLLLREDKDPRKMTATIYELKEDKSYDVTRVEFGAKTYKYQIGTFVPGSQPGEFTLGGIESMPGMTSFLVRVVSTNYNQHAIVFFKYVYQNREYFEITLYGRTKELTSELKENFIRFSKSLGLPENHIVFPVPIDQAIDGSGGGGSLAEAKEAANAELDSYGVSDFYKRLIDKAKTVEGVEALKDAILAALPSAWSHPQFEK
B5: cynomolgus monkey IL-17A (ligand)
chain: GIAIPRNSGCPNSEDKNFPRTVMVNLNIHNRNTSTNPKRSSDYYNRSTSPWNLHRNEDPERYPSVIWEAKCRHLGCVKADGNVDYHMNSVPIQQEILVLRREPRHCPNSFRLEKILVSVGCTCVTPIVHHVA
notes: also called cIL-17A
B6: benchmark 3 (antibody, human IgG1, kappa, V domains shown)
VH: QVQLVQSGAEVKKPGASVKVSCKVSGKTFWSYGINWVRQAPGKGLEWMGYIYIGTGYTEPNPKYKGRVTMTEDTSTDTAYMELSSLRSEDTAVYYCATIGGYYGNFDQWGQGTTVTVSS
VL: DVVMTQSPLSLPVTLGQPASISCRSSQSLLISGGKTYLNWFQQRPGQSPRRLIYLVSKLDQGVPDRFSGSGSGTDFTLKISRVEAEDVGVYYCWQGTYFPLTFGQGTKLEIKR
B7: negative control SEQ ID NO: 43 (other)
chain: QDSTSDLIPAPPLSKVPLQQNFQDNQFQGKWYVVGLAGNAILREDKDPQKMYATIYELKEDKSYNVTSVLFRKKKCDYWIRTFVPGCQPGEFTLGNIKSYPGLTSYLVRVVSTNYNQHAMVFFKKVSQNREYFKITLYGRTKELTSELKENFIRFSKSLGLPENHIVFPVPIDQCIDG
B8: mouse IL-23 (ligand)
chain 1: VPRSSSPDWAQCQQLSRNLCMLAWNAHAPAGHMNLLREEEDEETKNNVPRIQCEDGCDPQGLKDNSQFCLQRIRQGLAFYKHLLDSDIFKGEPALLPDSPMEQLHTSLLGLSQLLQPEDHPRETQQMPSLSSSQQWQRPLLRSKILRSLQAFLAIAARVFAHGAATLTEPLVPTA
chain 2: MWELEKDVYVVEVDWTPDAPGETVNLTCDTPEEDDITWTSDQRHGVIGSGKTLTITVKEFLDAGQYTCHKGGETLSHSHLLLHKKENGIWSTEILKNFKNKTFLKCEAPNYSGRFTCSWLVQRNMDLKFNIKSSSSSPDSRAVTCGMASLSAEKVTLDQRDYEKYSVSCQEDVTCPTAEETLPIELALEARQQNKYENYSTSFFIRDIIKPDPPKNLQMKPLKNSQVEVSWEYPDSWSTPHSYFSLKFFVRIQRKKEKMKETEEGCNQKGAFLVEKTSTEVQCKGGNVCVQAQDRYYNSSCSKWACVPCRVRS
notes: also called mIL-23
B9: benchmark antibody 2 (antibody, human IgG4, kappa, V domains shown)
VH: QVQLVQSGAEVKKPGSSVKVSCKASGYSFTDYHISWVRQAPGQGLEWMGVINPEYGTTDYNQRFKGRVTITADESTSTAYMELSSLRSEDTAVYYCARYDYFTGTGAYWGQGTLVTVSS
VL: DIVMTQTPLSLSVTPGQPASISCRSSQSLKHSRGNTFLHWYLQKPGQSPQLLIYKVSNRFIGVPDRFSGSGSGTDFTLKISRVEAEDVGVYYCSQSTHYPFTFGQGTKLEIKR
B10: human IL-23 (ligand)
chain 1: RAVPGGSSPAWTQCQQLSQKLCTLAWSAHPLVGHMDLREEGDEETTNDVPHIQCGDGCDPQGLRDNSQFCLQRIHQGLIFYEKLLGSDIFTGEPSLLPDSPVGQLHASLLGLSQLLQPEGHHWETQQIPSLSPSQPWQRLLLRFKILRSLQAFVAVAARVFAHGAATLSP
chain 2: IWELKKDVYVVELDWYPDAPGEMVVLTCDTPEEDGITWTLDQSSEVLGSGKTLTIQVKEFGDAGQYTCHKGGEVLSHSLLLLHKKEDGIWSTDILKDQKEPKNKTFLRCEAKNYSGRFTCWWLTTISTDLTFSVKSSRGSSDPQGVTCGAATLSAERVRGDNKEYEYSVECQEDSACPAAEESLPIEVMVDAVHKLKYENYTSSFFIRDIIKPDPPKNLQLKPLKNSRQVEVSWEYPDTWSTPHSYFSLTFCVQVQGKSKREKKDRVFTDKTSATVICRKNASISVRAQDRYYSSSWSEWASVPCS
notes: Heterodimer of p19 and p40; Biotinylated in the ELISA formats; also called hIL-23; hIL23

Experiment [1] concerns the target B10. Briefly: cell-based or functional assay.
The target in experiment [2] is B10. Briefly: SPR (Biacore T200), hIL-23 amine-coupled on chip, mutein as analyte.
Experiment [3] concerns the target B10. Briefly: competition ELISA (MSD), biotinylated hIL-23 pre-incubated with binder, free hIL-23 captured on coated hIL-23R. In general terms: ELISA stands for enzyme-linked immunosorbent assay.
Experiment [4] addresses T1, lipocalin mutein of SEQ ID NO: 1.
T1 construct: Mutein of human tear lipocalin; also called Tlc mutein
Briefly: solution competition ELISA: 0.25 nM SEQ ID NO: 1 pre-incubated with varied ligand, free mutein captured on immobilised biotinylated hIL-17A. As for the experimental part:
In the following detailed experimental protocol, incubation and washing steps were performed as described above in the competition ELISA protocol. A 384-well plate suitable for fluorescence measurements (Greiner FLUOTRAC™ 600, black flat bottom, high-binding) was coated with 20 μl of Neutravidin at a concentration of 5 μg/ml in PBS over night at 4° C. After washing, the Neutravidin-coated wells were blocked with 100 μl blocking buffer (PBS-T/BSA) for 1h at room temperature.

Experiment [5] has as its target B10. Briefly: SPR (Biacore T200), biotinylated binder captured on CAP chip, hIL-23 as analyte, buffer with 350 mM NaCl. As for the experimental part: To this end, undiluted Biotin CAPture Reagent was applied at a flow rate of 2 μL/min for 300 s. […] The reference channel was loaded with Biotin CAPture Reagent only.
Applying a flow rate of 30 μL/min, a single cycle kinetics approach was used with a sample contact time of 300 s and a dissociation time of 4000 s or 7200 s. After ligand immobilization, all 5 concentrations were applied consecutively in ascending order before the dissociation was monitored. All measurements were performed at 25° C.
(Surface plasmon resonance follows binding to a sensor surface in real time, without labels.)

For experiment [6], the target named is B10. Briefly: competition ELISA (MSD), biotinylated hIL-23 pre-incubated with binder, free hIL-23 captured on coated hIL-23R. As for the experimental part: (§1) All incubation steps were performed with shaking 300 rpm, and the plate was washed after each incubation step with 80 μl PBS/0.05% Tween 20 for five times using a Biotek EL405 select CW washer. […] After washing, the receptor-coated wells were blocked with 60 μl PBS-T/BSA for 1 h at room temperature.
(§2) After washing, 60 μl MSD Read Buffer T (2×) was added to each well and the plate was read within 15 min.
(§3) The resulting ECL signal was measured using the SECTOR Imager 2400 (Meso Scale Discovery).
This is another data set of the same source.

The target of experiment [7] is B10. Description: competition ELISA (MSD): biotinylated hIL-23 tracer pre-incubated with the titrated control, free hIL-23 captured on coated soluble hIL-23R. As for the experimental part:
as §1, §2, §3

For experiment [8], the target named is T2, lipocalin mutein of SEQ ID NO: 2.
T2 construct: Mutein of human lipocalin 2 (NGAL); Also used as negative control in the IL-17A cell assay; also called hNGAL mutein
Briefly: solution competition ELISA: 0.5 nM SEQ ID NO: 2 pre-incubated with varied ligand, free mutein captured on immobilised biotinylated hIL-23.

The next experiment concerns the target human IL-17A (human, UniProt Q16552 24-155, limits assumed). Briefly: cell-based or functional assay.

Numbering of substitutions follows the chain as printed. Several values for one entry are separate records, joined by “and”; a condition that tells them apart may be missing. Identical values can stand only once. Like-named read-outs stand apart in the source and are kept apart here.

T1 sequence (chain, as listed by the source): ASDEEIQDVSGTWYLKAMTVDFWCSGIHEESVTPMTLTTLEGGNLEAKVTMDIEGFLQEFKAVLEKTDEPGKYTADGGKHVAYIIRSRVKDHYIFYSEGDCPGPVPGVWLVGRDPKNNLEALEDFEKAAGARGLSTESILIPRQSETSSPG

For B1, the “hIL-23-induced proliferation of Ba/F3 cells with hIL-23R and hIL-12Rβ1, EC50” value in the experiment with human IL-23 [1] was 5400 pM. Moreover, in the experiment with human IL-23 [2], the affinity, expressed as Kd, was 600 pM; the koff worked out at 4e-05 s⁻¹; the kon worked out at 70000 M⁻¹ s⁻¹. This molecule came in with a half-maximal inhibitory concentration (IC50) with human IL-23 [3] of 1100 pM.

As for B2, in the experiment with human IL-23 [1], the “hIL-23-induced proliferation of Ba/F3 cells with hIL-23R and hIL-12Rβ1, EC50” value was found to be 3700 pM. In the experiment with human IL-23 [2], this molecule came in with a Kd of 100 pM, a koff of 3e-05 s⁻¹ and a kon of 300000 M⁻¹ s⁻¹. The same molecule yielded an IC50 in the experiment with human IL-23 [3] of 100 pM.

As to B3, in [4], the IC50 turned out to be 200 pM. This lies in the sub-nanomolar range.

Molecule B4 gave a Kd with human IL-23 [5] of 2400 pM. The IC50 with human IL-23 [6] came out at 1110 pM.

As to B5, in experiment [4], the IC50 came out at 100 pM.

As to B6, in the experiment with human IL-23 [1], the “hIL-23-induced proliferation of Ba/F3 cells with hIL-23R and hIL-12Rβ1, EC50, average” value was 3000 pM; the “hIL-23-induced proliferation of Ba/F3 cells, EC50, single experiment” value is 3100 pM and 2900 pM.

Regarding B7, the binding result with human IL-23 [7] is “no binding”.

In experiment [8], B8 had an IC50 of 500 pM.

Turning to B9, in the experiment with human IL-17A, the “IL-17A-induced G-CSF secretion in U87-MG cells, EC50, average” value is 120 pM; the “IL-17A-induced G-CSF secretion in U87-MG cells, EC50, single experiment” value is 140 pM and 100 pM.

As for B10, the IC50 in experiment [8] turned out to be 900 pM.
